Assay results from US20170313769A1 (Pfizer, published 2017).

How the values were obtained:
Rabbit IFNβ = target: T1, Rabbit IFNβ (rabbit); experiment: plate ELISA, rabbit IFNβ coated at 10 ng/mL
T1 chain: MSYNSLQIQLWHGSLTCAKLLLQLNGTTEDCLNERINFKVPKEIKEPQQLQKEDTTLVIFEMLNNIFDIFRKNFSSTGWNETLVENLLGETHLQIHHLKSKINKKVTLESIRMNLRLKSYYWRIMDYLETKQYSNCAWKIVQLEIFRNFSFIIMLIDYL

Human IFNγ = target: T2, Human IFNγ (human, UniProt P01579 24-166, limits assumed); experiment: plate ELISA, IFNγ coated at 5 µg/mL
T2 construct: also called IFNγ (type II)
T2 sequence (looked up): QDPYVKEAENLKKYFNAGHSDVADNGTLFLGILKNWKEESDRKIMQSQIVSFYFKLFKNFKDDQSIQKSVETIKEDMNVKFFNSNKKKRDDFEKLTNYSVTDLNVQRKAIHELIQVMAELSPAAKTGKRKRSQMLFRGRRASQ

Mouse IFNβ = Mouse IFNβ (mouse, UniProt P01575 22-182); experiment: plate ELISA, mouse IFNβ coated at 1 µg/mL
Mouse IFNβ, sequence (P01575 22-182): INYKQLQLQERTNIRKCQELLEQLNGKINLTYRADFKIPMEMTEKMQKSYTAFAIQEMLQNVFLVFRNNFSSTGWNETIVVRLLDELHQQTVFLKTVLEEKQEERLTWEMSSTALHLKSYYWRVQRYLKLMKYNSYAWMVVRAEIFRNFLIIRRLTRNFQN

[1] = target: T3, Human IFNβ (mature human interferon beta) (human, UniProt P01574 22-187); experiment: SPR (affinity maturation); after affinity maturation (four light chain mutations)
T3 construct: Recombinant human IFNβ (Peprotech for SPR); In some functional assays it is endogenous IFNβ secreted by primary human cells; also called hIFN-β; recombinant human IFNβ

Cynomolgus monkey IFNβ = target: T4, Cynomolgus monkey IFNβ (cynomolgus monkey, UniProt O77812 22-187); experiment: ELISA (summary value); cynomolgus monkey IFNβ
T4 construct: also called cyno-IFNβ
T4 sequence (O77812 22-187): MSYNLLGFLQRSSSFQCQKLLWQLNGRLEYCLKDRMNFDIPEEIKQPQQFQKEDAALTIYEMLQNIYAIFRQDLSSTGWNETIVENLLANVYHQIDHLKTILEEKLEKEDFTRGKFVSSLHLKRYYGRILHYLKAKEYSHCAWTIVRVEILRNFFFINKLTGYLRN

[2] = target: T3, Human IFNβ (mature human interferon …); experiment: plate ELISA, human IFNβ coated at 5 µg/mL, antibody titrated from 30 nM
[3] = target: T3, Human IFNβ (mature human interferon …); experiment: SPR, Biacore T200; antibody amine-coupled on CM5 chip, human IFNβ as analyte, 1:1 model
Human IFNω = Human IFNω (human, UniProt P05000 24-195); experiment: plate ELISA, human IFNω coated at 5 µg/mL
Human IFNω, sequence (P05000 24-195): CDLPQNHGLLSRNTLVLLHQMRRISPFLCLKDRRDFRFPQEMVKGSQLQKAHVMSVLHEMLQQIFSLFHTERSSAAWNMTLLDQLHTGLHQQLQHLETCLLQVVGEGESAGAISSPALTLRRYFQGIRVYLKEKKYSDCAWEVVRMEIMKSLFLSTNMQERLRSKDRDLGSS

[4] = target: T3, Human IFNβ (mature human interferon …); experiment: SPR, Biacore T200; CTI-AF1 immobilized on CM5 chip, human IFNβ (Peprotech) 10 to 0.078125 nM, 1:1 model
[5] = target: T3, Human IFNβ (mature human interferon …); experiment: cell-based or functional assay
CID1281 = target: T5, CID1281 (human (IFNβ with IFNα sequence inserted), UniProt P01574 22-187); experiment: cell-based or functional assay
T5 chain: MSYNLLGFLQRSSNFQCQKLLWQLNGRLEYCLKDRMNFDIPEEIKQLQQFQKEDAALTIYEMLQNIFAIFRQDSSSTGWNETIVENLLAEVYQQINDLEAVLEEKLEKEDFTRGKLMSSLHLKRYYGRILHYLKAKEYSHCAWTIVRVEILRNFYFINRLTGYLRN

CID1287 = target: T6, CID1287 (human (IFNβ with IFNα sequence inserted), UniProt P01574 22-187); experiment: cell-based or functional assay
T6 chain: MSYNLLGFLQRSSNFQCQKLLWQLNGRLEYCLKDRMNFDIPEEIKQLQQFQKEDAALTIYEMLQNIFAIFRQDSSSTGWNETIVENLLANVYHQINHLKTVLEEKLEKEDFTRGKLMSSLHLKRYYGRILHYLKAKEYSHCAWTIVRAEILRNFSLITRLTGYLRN

CID1276 = target: T7, CID1276 (human (IFNβ with IFNα sequence inserted), UniProt P01574 22-187); experiment: cell-based or functional assay
T7 chain: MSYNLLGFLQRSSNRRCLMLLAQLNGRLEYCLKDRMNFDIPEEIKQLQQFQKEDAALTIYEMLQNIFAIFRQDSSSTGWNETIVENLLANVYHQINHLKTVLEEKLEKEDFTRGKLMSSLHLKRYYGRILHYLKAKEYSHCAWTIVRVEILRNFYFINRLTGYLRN

[6] = target: T3, Human IFNβ (mature human interferon …); experiment: cell-based or functional assay; remark: listed apart in the source
CID1283 = target: T8, CID1283 (human (IFNβ with IFNα sequence inserted), UniProt P01574 22-187); experiment: cell-based or functional assay
T8 chain: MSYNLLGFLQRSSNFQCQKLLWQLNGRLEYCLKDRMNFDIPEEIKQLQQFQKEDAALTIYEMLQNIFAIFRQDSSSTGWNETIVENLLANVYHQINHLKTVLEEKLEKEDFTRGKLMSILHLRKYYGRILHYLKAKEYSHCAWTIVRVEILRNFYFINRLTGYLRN

CID1280 = target: T9, CID1280 (human (IFNβ with IFNα sequence inserted), UniProt P01574 22-187); experiment: cell-based or functional assay
T9 chain: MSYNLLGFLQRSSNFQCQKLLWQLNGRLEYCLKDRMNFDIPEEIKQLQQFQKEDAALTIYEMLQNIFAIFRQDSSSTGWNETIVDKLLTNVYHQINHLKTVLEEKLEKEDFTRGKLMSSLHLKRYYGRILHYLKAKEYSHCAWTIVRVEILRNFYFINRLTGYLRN

CID1277 = target: T10, CID1277 (human (IFNβ with IFNα sequence inserted), UniProt P01574 22-187); experiment: cell-based or functional assay
T10 chain: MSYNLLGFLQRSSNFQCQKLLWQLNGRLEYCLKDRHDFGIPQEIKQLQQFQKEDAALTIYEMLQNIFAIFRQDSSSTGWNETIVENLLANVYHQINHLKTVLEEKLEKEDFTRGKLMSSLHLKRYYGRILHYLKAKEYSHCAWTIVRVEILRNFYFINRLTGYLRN

CID1286 = target: T11, CID1286 (human (IFNβ with IFNα sequence inserted), UniProt P01574 22-187); experiment: cell-based or functional assay
T11 chain: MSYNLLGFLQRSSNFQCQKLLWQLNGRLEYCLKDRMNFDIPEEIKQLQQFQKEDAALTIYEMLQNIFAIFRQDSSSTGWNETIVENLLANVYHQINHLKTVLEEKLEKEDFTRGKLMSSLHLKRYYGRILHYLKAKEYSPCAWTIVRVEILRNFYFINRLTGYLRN

EC50 (Rabbit IFNβ): 2.95 nM
binding result (Human IFNγ): no binding
binding result (Mouse IFNβ): no binding
Kd [1]: 0.029 nM
EC50 (Cynomolgus monkey IFNβ): 0.025 nM
EC50 [2]: 0.0151 nM
Kd [3]: 0.036 nM
binding result (Human IFNω): no binding
Kd [4]: 0.0367 nM
IC50, IFNβ induced luciferase activity in HEK293 ISRE-Luc cells [5]: 0.0288 nM
IC50, M×A (M×1) gene expression in human dermal fibroblasts stimulated with recombinant IFNβ [5]: 0.0294 nM
IC50, inhibition of IFNβ induced STAT1 phosphorylation in U937 cells (phosflow) [5]: 0.0298 nM
IC50, neutralization of IFNβ induced STAT1 phosphorylation [5]: 0.0077 nM
IC50 (nM), neutralization of type I IFN-induced STAT1 phosphorylation (CID1281): 3280 nM
IC50 (nM), neutralization of type I IFN-induced STAT1 phosphorylation (CID1287): 0.3 nM
IC50 (nM), neutralization of type I IFN-induced STAT1 phosphorylation (CID1276): 0.2 nM
IC50 (nM), neutralization of type I IFN-induced STAT1 phosphorylation [6]: 0.3 nM
IC50 (nM), neutralization of type I IFN-induced STAT1 phosphorylation (CID1283): 0.4 nM
IC50 (nM), neutralization of type I IFN-induced STAT1 phosphorylation (CID1280): 47.7 nM
IC50 (nM), neutralization of type I IFN-induced STAT1 phosphorylation (CID1277): 0.3 nM
IC50 (nM), neutralization of type I IFN-induced STAT1 phosphorylation (CID1286): 0.4 nM
B1: CTI-AF1 (antibody, human IgG1, kappa, V domains shown)
VH: QVQLVQSGAEVKKPGSSVKVSCKASGYTFSRYWMHWVRQAPGQGLEWMGHIDPSDSYTYYNQKFKGRVTITADESTSTAYMELSSLRSEDTAVYYCARWDYGNLLFEYWGQGTLVTVSS
VL: DIQMTQSPSSLSASVGDRVTITCRTSQDIGNYLNWYQQKPGKAFKLLIYSTSRLHSGVPSRFSGSGSGTDFTLTISSLQPEDFATYYCQQGIILPITFGGGTKVEIKR
notes: Humanized IgG1; The C-terminal K of the heavy chain is printed as optional, '(K)'; also called anti-IFNβ antibody; humanized IgG1 antibody against interferon beta
